For test [1], the target named is Ash2L SPRY domain (UniProt Q9UBL3). The test is described as follows: isothermal titration calorimetry. The note with it: reference: unmodified RbBP5 344-357 peptide; sites S350. For orientation: In ITC the heat of successive injections is recorded.
Test [2] addresses His-SUMO-tagged MLL3 SET domain (UniProt Q8NEZ4). The test is described as follows: pull-down.
In test [3] the target is Ash2L SPRY domain. Put plainly: ITC.

Square brackets hold non-standard residues; d marks the D form. Ends that are not written are not given here. pS = N[C@@H](COP(=O)(O)O)C(=O)O

Sequence of UniProt Q8NEZ4 (Q8NEZ4 4771-4887): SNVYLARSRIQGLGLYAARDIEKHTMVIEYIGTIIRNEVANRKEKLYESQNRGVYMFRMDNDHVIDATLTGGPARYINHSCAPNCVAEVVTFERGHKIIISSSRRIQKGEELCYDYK
Sequence of UniProt Q9UBL3 (Q9UBL3 380-598): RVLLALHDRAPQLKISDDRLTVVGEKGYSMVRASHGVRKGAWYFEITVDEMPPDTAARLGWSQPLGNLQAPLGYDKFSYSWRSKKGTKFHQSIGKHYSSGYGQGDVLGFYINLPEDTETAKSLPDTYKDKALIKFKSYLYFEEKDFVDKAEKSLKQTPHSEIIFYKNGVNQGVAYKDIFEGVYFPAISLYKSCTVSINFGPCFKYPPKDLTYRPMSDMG
Sequence of RbBP5 344-357 (Q15291 whole entry, looked up, change not shown, the tested form may be a part): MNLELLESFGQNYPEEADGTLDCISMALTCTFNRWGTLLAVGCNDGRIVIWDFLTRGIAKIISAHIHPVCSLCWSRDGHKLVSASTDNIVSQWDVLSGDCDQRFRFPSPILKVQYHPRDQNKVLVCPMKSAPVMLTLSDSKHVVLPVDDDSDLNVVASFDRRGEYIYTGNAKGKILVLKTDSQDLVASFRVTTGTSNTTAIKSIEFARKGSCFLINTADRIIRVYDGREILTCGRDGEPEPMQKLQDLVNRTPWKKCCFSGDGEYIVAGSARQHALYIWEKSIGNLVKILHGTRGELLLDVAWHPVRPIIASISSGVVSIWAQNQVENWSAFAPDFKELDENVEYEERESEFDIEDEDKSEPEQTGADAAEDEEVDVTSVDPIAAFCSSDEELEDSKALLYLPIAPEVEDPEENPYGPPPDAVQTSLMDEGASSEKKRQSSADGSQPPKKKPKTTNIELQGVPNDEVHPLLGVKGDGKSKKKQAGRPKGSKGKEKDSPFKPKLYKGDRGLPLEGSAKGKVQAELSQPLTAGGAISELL

Take “RbBP5 344-357 (from UniProt Q15291) pS350 RbBP5 344-357 peptide”: the fold change result in test [1] is listed as “stronger”. Consider “Ash2L/RbBP5^phos heterodimer (from UniProt Q9UBL3 1-628; Q15291 1-538) (complex)”, for which, in test [2], the fold increase in binding against Ash2L/RbBP5 stood at 5 fold. EYEERE[pS]EFDIEDE [phosphorylated peptide RbBP5 344-357 (phospho-S350), Q15291 344-357] came in with a fold higher affinity against the unmodified peptide in test [3] of 15 fold.

The values are drawn from article PMC4298132.
